Test results reported in the supplement of paper PMC10126150.
± gives the standard deviation of the averaged measurements.

System: ATP
Experiment: switch fluorescence ratio, 500 uM ATP over buffer (Cy3 cluster intensity, sum of 5 cycles each) (fold (ratio)); higher = stronger signal-on switching upon ATP binding; sequences stand for … in TCGTCGGCAGCGTCAGATGTGTATAAGAGACAGTTTTTTTTTTTTTTTTTTTTTTTTT…TC
Conditions: aptamer strand: ATP DNA aptamer (quencher-CACCTGGGGGAGTATTGCGGAGGAAGG + anchor), 100 nM annealed; ATP concentration: 500 uM
Method in brief: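 After annealing to 100 nM quencher-labelled ATP aptamer, Cy3-labelled switching-strand clusters on a modified Illumina MiSeq flow-cell were imaged in selection buffer. A second image followed after 15 min with 500 uM ATP at 22 °C, and five such buffer/ATP cycles were done, each separated by NaOH stripping and re-annealing. The fluorescence ratio, averaged per switch-domain sequence, is summed target-cycle over summed buffer-cycle Cy3 intensity per cluster, with clusters outside 100-1000 RFU excluded.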
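Note: ATP exposure 15 min at 22 °C before imaging.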

Sequence	switch fluorescence ratio
TGGACGGGTT	1.02 ± 0.014
TAAAACTCCA	1.03 ± 0.038
CGTTTGTTTG	0.988 ± 0.021
CTAATTGTGT	0.9933 ± 0.0034
TTGAAGCAAA	1.44 ± 0.37
CGTCTAACGC	1.02 ± 0.029
CGGGCAGTTG	0.9992 ± 0.0071
AAGCTAGTAA	0.865 ± 0.012
GGGAATCATT	0.948 ± 0.034
TAGGGATTGG	1.01 ± 0.039
CACGTATGTT	1.09 ± 0.021
GGATTTATGT	0.94526 ± 0.00032
ATTCGCCACT	1.011 ± 0.0012
AGATTTTGCA	0.989 ± 0.027
GTTTAATCCG	0.975 ± 0.013
CGGCAAGTGC	2.19 ± 1
TTTATGGTTG	1.02 ± 0.064
TGGTCCTGGT	0.997 ± 0.019
TTTTGTTGTA	0.996 ± 0.024
CAGGGCGCCT	1.012 ± 0.002
GGAATGCCGG	1.02 ± 0.021
AGGGGCTTAT	1.01 ± 0.014
TTTGTTAGAC	1.03 ± 0.022

Sequence	switch fluorescence ratio
TGATGAGTCG	1.0211 ± 0.00074
GGGTTGAGGG	1 ± 0.027
CGTCCGGCGC	1.346 ± 0.0029
TTGGCAGGCC	1.017 ± 0.0074
CATTAGAGAC	1.03 ± 0.012
ACACATTGGA	1.03 ± 0.0023
TGAACTTGAG	1.01 ± 0.0062
CAGACGGTAC	3.08 ± 0.089
TGGGTCAATA	1.03 ± 0.054
ATCATAGCCG	1.07 ± 0.14
TAGTTATTTA	0.99 ± 0.033
GACAGAGGTG	1.03 ± 0.031
AGAGTTAGGT	1.021 ± 0.0047
TGGAGCTTGA	1.02 ± 0.021
TATGTGGACA	0.9964 ± 0.0047
AATGGCAGGA	0.998 ± 0.016
TTTTGAAGTC	1.03 ± 0.092
ATGCGAGCGG	0.985 ± 0.014
TTGCTGTTTG	1 ± 0.034
GGATGAAGGG	0.981 ± 0.022
AGGGGGGCTC	0.98 ± 0.04
GGGAAATTTG	0.991 ± 0.026
GGGGTGGGAG	1.01 ± 0.041

Sequence	switch fluorescence ratio
TTTGGAGGAT	0.978 ± 0.029
TTAAGGATGT	1 ± 0.014
GTACACTCAT	1.04 ± 0.031
CCGGGTGCTA	2.36 ± 1.4
TCGGCCGGGA	1.05 ± 0.011
GTTTGATAGA	0.984 ± 0.027
GGGATGACAG	1.02 ± 0.072
TGGCCGGTGT	0.991 ± 0.032
AAGTTTAGCA	1.01 ± 0.021
TACTCGCTGG	1.07 ± 0.036
GGGATAGATT	1.028 ± 0.008
ATTGGACTAG	0.989 ± 0.07
AAAGCGGGGG	1.04 ± 0.016
TTAATTATAT	1.02 ± 0.018
TGAGGCCCAG	1.01 ± 0.019
CAGGTTTGTT	1.12 ± 0.17
TCAAAATATT	1.006 ± 0.0065
TATATGCACT	1.07 ± 0.024
CAAAGGATAC	1.2 ± 0.013
CGGATTCGAG	0.98 ± 0.035
TAGCTTCTGC	0.907 ± 0.063
AAAGACGGTT	0.997 ± 0.013
TTATAAAAAG	0.974 ± 0.042

Sequence	switch fluorescence ratio
TGTGGTTGGA	1 ± 0.012
ATATTCTGGG	0.969 ± 0.015
GGTTTATAAA	0.971 ± 0.051
TATGGATTGC	0.988 ± 0.032
TACATTCGCG	1.01 ± 0.035
CTCGCACGTT	1.03 ± 0.032
CGGAGTGGGG	1.01 ± 0.012
CAGGTAAAAG	1.01 ± 0.035
ATGGAGGTCT	1.01 ± 0.055
ACTTTGTTGC	1.01 ± 0.0079
GAAGTAGTTA	1.006 ± 0.0082
TTAGTAGTTG	1.02 ± 0.028
TTCTTAGATG	1.016 ± 0.0088
TGTGTTTCGG	0.9799 ± 0.0082
TGGTTCTTAA	1.01 ± 0.041
CATAGCGATA	3.48 ± 0.28
AAGCATAGGT	0.995 ± 0.018
ATTTTGGAGG	0.9908 ± 0.0057
TCCGGGTCTG	1.03 ± 0.072
GTGGGCGGCG	1.02 ± 0.064
ATCTGGAGTT	1.01 ± 0.018
TTTCGCGTGG	0.971 ± 0.028
ACAAGTAAGC	1.048 ± 0.0067

Sequence	switch fluorescence ratio
CCTGGTGCAT	2.15 ± 0.056
TCTGATTATA	0.987 ± 0.024
CTGGTTTGGA	1 ± 0.022
ATGGGAGGAT	1.018 ± 0.0027
TGAAATATTC	0.993 ± 0.019
TGATCAAGGA	0.997 ± 0.041
AAGGGCTAGA	1 ± 0.016
TTTGGCTTTT	1.06 ± 0.18
CAGAGGCCCG	1.02 ± 0.032
GGACTTGCGA	1.043 ± 0.0042
AAATCAACCC	0.9885 ± 0.0083
TTCTGGCAAT	2.97 ± 0.14
TAATAATCTA	1.01 ± 0.027
ATTGCAGCGG	1 ± 0.02
AGTTACCGGG	0.998 ± 0.044
TCTGGTGACG	1.04 ± 0.054
AACGGCCGTG	1.02 ± 0.046
GGTGTTTATC	1 ± 0.014
TTTACGATTA	1.14 ± 0.067
GCCCCGGCTG	1.03 ± 0.045
TTTTTTGTTC	1.14 ± 0.3
AATGGCTGTG	0.972 ± 0.033
GTTGGGGGGC	0.992 ± 0.036

Sequence	switch fluorescence ratio
GGGTAAGGCA	0.986 ± 0.071
TCTTGGGGCA	1.01 ± 0.019
CATTTAATGG	0.997 ± 0.028
GTGGGAGG	1.02 ± 0.025
AATTACGGGT	1 ± 0.021
CCTTTTGTAC	1.386 ± 0.011
CGCGGAACTG	1.09 ± 0.016
GCGCAACAGG	1.04 ± 0.015
GGACGGTATG	1.02 ± 0.031
GACCTGTAAT	1.025 ± 0.0013
TCGGGTATTT	0.998 ± 0.021
GATGAATGTC	1.04 ± 0.13
TTTAAATTTG	1.018 ± 0.0054
TTGAGGGTCC	1.004 ± 0.0056
TTCGTAATGT	1.036 ± 0.0083
TTTCAGGGGG	1.05 ± 0.091
AAGGCGGCAT	1 ± 0.044
GGTATGGATA	1 ± 0.027
AGTTTCGGTA	0.977 ± 0.018
GAGGGTCGGG	0.988 ± 0.033
TCAACCGTTT	1.02 ± 0.065
GTGGGAGCTG	0.99 ± 0.0079
CCCCTTTATT	1.01 ± 0.057

Sequence	switch fluorescence ratio
CCTGGGGAGT	1.04 ± 0.034
CGGTATAAGT	0.9949 ± 0.0042
TGGATCCCCA	1.06 ± 0.091
ACTCGTTTAT	0.99 ± 0.013
TCGGGGTCAG	0.999 ± 0.02
GTTCGTTTTG	0.975 ± 0.035
CGAAGGGGGA	0.995 ± 0.021
CGGTCGGGGG	0.999 ± 0.032
ACTAAGGGAG	1.01 ± 0.005
TGTGGTATGC	1.01 ± 0.057
GAATTCAGGG	0.99 ± 0.014
ATAGTCAAAG	0.998 ± 0.034
GACGTAAATA	1.75 ± 0.18
CGATCCTATG	0.969 ± 0.045
GAATGGGGGA	1.02 ± 0.019
ATGACGTATT	1.02 ± 0.052
CCGAAACTTG	1.07 ± 0.038
GGTCCGATTA	1 ± 0.056
CTTCTGGAGG	1.15 ± 0.028
